{"source": "paper PMC6662825", "about": "“The MTR4 helicase recruits nuclear adaptors of the human RNA exosome using distinct arch-interacting motifs” (Nature Communications, 2019)", "binders": {"B1": {"name": "Trx-NVL^1–266 (domain or fragment, human, UniProt O15381 1-266, looked up)", "chain": "MKPRPAGFVDNKLKQRVIQYLTSNKCGKYVDIGVLASDLQRVYSIDYGRRKRNAFRIQVEKVFSIISSEKELKNLTELEDEHLAKRARQGEEDNEYTESYSDDDSSMEDYPDPQSANHMNSSLLSLYRKGNPDSVSNTPEMEQRETTSSTPRISSKTGSIPLKTPAKDSEGGWFIDKTPSVKKDSFFLDLSCEKSNPKKPITEIQDSKDSSLLESDMKRKGKLKNKGSKRKKEDLQEVDGEIEAVLQKKAKARGLEFQISNVKFED", "notes": "also called N-terminal region of human NVL tagged with thioredoxin; source: E. coli BL21 star (DE3), purified (Ni-NTA, SEC); not shown: 6xHis-Trx, N-terminal, kept"}, "B2": {"name": "NVL^167–216 D176A (domain or fragment, human, UniProt O15381 167-216, looked up)", "chain": "KDSEGGWFIAKTPSVKKDSFFLDLSCEKSNPKKPITEIQDSKDSSLLESD", "notes": "The methods give Trx-NVL constructs for the NVL pull-downs, so the Trx tag was probably kept; also called D176A mutant; source: E. coli BL21 star (DE3), purified (Ni-NTA, SEC)"}, "B3": {"name": "Trx-NVL^167–216 F186A D189R (domain or fragment, human, UniProt O15381 167-216, looked up)", "chain": "KDSEGGWFIDKTPSVKKDSAFLRLSCEKSNPKKPITEIQDSKDSSLLESD", "notes": "also called F186A and D189R mutations in the Nop53-like stretch; source: E. coli BL21 star (DE3), purified (Ni-NTA, SEC); not shown: 6xHis-Trx, N-terminal, kept"}, "B4": {"name": "MBP-ZCCHC8^91–211-(GS)3-eYFP (domain or fragment, human, UniProt Q6NZY4 91-211, looked up)", "chain": "DGPILQILFMNNAISKQYHQEIEEFVSNLVKRFEEQQKNDVEKTSFNLLPQPSSIVLEEDHKVEESCAIKNNKEAFSVVGSVLYFTNFCLDKLGQPLLNENPQLSEGWEIPKYHQVFSHIV", "notes": "also called ZCCHC8-YFP fusion protein; source: E. coli BL21 star (DE3), purified (Ni-NTA, SEC); not shown: 6xHis-MBP, N-terminal, kept; (GS)3-eYFP, C-terminal, kept"}, "B5": {"name": "MBP-ZCCHC8^91–211 (domain or fragment, human, UniProt Q6NZY4 91-211, looked up)", "chain": "DGPILQILFMNNAISKQYHQEIEEFVSNLVKRFEEQQKNDVEKTSFNLLPQPSSIVLEEDHKVEESCAIKNNKEAFSVVGSVLYFTNFCLDKLGQPLLNENPQLSEGWEIPKYHQVFSHIV", "notes": "source: E. coli BL21 star (DE3), purified (Ni-NTA, SEC); not shown: 6xHis-MBP, N-terminal, kept"}, "B6": {"name": "MBP-ZCCHC8^91–211 F178A/D181R (domain or fragment, human, UniProt Q6NZY4 91-211, looked up)", "chain": "DGPILQILFMNNAISKQYHQEIEEFVSNLVKRFEEQQKNDVEKTSFNLLPQPSSIVLEEDHKVEESCAIKNNKEAFSVVGSVLYFTNACLRKLGQPLLNENPQLSEGWEIPKYHQVFSHIV", "notes": "also called F178A/D181R mutant; source: E. coli BL21 star (DE3), purified (Ni-NTA, SEC); not shown: 6xHis-MBP, N-terminal, kept"}, "B7": {"name": "MBP-ZCCHC8^91–211 W198A/K202E (domain or fragment, human, UniProt Q6NZY4 91-211, looked up)", "chain": "DGPILQILFMNNAISKQYHQEIEEFVSNLVKRFEEQQKNDVEKTSFNLLPQPSSIVLEEDHKVEESCAIKNNKEAFSVVGSVLYFTNFCLDKLGQPLLNENPQLSEGAEIPEYHQVFSHIV", "notes": "also called W198A/K202E mutant; source: E. coli BL21 star (DE3), purified (Ni-NTA, SEC); not shown: 6xHis-MBP, N-terminal, kept"}, "B8": {"name": "GST-MTR4-KOW (domain or fragment, human, UniProt P42285 645-787, looked up)", "chain": "HKPKYCLPFLQPGRLVKVKNEGDDFGWGVVVNFSKKSNVKPNSGELDPLYVVEVLLRCSKESLKNSATEAAKPAKPDEKGEMQVVPVLVHLLSAISSVRLYIPKDLRPVDNRQSVLKSIQEVQKRFPDGIPLLDPIDDMGIQD", "notes": "human MTR4 KOW domain, residues 645–787; also called GST-tagged MTR4 KOW; source: E. coli BL21 star (DE3), purified (Ni-NTA, heparin, SEC); not shown: 6xHis-GST, N-terminal, kept"}}, "conditions_in_all_cases": "both partners purified", "key": {"GST-MTR4-∆N [1]": {"biological_target": "T1, GST-MTR4-∆N (human, UniProt P42285 75-1042)", "T1 construct": "Tag is cleavable with 3C protease; kept for the GST pull-downs; also called GST-tagged MTR4∆N; source: E. coli BL21 star (DE3), purified (Ni-NTA, heparin, SEC); not shown: 6xHis-GST, N-terminal, kept", "T1 sequence (looked up)": "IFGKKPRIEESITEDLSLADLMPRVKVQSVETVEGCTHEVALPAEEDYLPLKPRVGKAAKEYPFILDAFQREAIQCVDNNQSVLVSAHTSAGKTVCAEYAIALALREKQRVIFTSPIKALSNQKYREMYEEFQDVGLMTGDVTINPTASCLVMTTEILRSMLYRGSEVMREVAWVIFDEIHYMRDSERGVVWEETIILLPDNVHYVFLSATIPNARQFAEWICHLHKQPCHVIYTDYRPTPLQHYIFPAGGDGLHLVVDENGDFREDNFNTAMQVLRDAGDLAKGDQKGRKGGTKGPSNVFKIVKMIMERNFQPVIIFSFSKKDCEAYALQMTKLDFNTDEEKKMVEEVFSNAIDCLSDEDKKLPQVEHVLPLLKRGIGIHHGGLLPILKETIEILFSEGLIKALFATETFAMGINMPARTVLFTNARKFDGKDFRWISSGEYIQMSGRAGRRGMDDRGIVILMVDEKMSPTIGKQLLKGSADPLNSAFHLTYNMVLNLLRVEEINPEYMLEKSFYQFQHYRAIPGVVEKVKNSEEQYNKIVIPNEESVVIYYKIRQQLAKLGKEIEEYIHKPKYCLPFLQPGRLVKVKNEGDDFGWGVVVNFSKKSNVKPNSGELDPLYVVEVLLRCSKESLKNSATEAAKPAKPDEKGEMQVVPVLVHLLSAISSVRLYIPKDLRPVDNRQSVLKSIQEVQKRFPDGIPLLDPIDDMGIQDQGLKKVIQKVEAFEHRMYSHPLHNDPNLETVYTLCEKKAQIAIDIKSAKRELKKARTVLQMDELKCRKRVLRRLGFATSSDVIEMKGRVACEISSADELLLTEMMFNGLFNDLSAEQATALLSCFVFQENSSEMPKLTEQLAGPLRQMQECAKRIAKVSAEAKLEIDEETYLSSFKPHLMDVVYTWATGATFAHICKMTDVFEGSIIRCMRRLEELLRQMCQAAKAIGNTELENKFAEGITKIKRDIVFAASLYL", "assay": "pull-down; GST-tagged MTR4 constructs as bait, Trx-NVL constructs as prey, glutathione sepharose; 10 μM GST-MTR4∆N with 20 μM Trx-NVL constructs; 50 mM Hepes pH 7.5, 150 mM NaCl, 5% glycerol, 0.05% NP40, 1 mM DTT, 30 min at 4 °C; SDS-PAGE, Coomassie"}, "MTR4-KOW": {"biological_target": "T2, MTR4-KOW (human, UniProt P42285 645-787)", "T2 construct": "human MTR4 KOW domain, residues 645–787; Named without GST in MST, NMR and ITC; the methods say the His-GST tag was cleaved with 3C protease 'when appropriate', so it was probably removed; Isotope-labelled for NMR; also called unlabeled MTR4 KOW; 15N-labelled MTR4-KOW; source: E. coli BL21 star (DE3), purified (Ni-NTA, heparin, SEC); minimal medium with 15N/13C for NMR", "T2 sequence (looked up)": "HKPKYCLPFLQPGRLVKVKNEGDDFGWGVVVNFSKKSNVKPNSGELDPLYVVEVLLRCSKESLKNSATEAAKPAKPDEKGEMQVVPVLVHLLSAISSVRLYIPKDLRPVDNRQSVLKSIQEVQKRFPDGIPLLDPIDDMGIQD", "assay": "MST; 1 μM MBP-ZCCHC8^91–211-(GS)3-eYFP with a 1:1 dilution series of unlabeled MTR4-KOW; 50 mM Hepes/NaOH pH 7.5, 150 mM NaCl, 5% glycerol, 0.5 mM TCEP; MST power 70%, LED power 15%; triplicates"}, "GST-MTR4∆N R743E": {"biological_target": "T3, GST-MTR4∆N R743E (human, UniProt P42285 75-1042, R743E)", "T3 construct": "also called R743E mutant; source: E. coli BL21 star (DE3), purified (Ni-NTA, heparin, SEC); not shown: 6xHis-GST, N-terminal, kept", "T3 sequence (looked up)": "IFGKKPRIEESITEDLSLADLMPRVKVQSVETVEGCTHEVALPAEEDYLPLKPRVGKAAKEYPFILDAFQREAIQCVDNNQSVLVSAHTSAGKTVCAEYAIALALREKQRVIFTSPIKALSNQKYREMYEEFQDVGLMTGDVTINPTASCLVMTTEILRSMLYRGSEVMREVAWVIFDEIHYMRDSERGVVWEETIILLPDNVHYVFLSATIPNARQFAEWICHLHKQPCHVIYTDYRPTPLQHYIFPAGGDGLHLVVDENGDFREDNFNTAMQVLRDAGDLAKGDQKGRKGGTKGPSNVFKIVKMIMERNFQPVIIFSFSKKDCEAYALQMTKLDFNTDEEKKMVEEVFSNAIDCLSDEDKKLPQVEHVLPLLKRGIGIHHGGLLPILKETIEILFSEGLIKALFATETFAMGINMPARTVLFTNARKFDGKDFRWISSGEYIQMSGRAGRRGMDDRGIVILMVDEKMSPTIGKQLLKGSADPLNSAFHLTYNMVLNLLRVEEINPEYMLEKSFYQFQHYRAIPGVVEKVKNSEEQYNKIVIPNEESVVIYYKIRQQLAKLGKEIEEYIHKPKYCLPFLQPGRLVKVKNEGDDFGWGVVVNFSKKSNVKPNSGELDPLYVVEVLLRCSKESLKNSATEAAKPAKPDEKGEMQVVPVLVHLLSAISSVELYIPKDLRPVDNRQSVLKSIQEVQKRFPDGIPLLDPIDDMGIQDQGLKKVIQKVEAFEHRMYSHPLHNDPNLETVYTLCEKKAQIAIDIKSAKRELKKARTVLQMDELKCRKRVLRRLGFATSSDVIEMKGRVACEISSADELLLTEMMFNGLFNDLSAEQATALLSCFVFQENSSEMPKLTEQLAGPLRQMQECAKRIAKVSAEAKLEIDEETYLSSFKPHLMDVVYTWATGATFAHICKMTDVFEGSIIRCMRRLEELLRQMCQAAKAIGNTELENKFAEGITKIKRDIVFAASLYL", "assay": "pull-down; GST-tagged MTR4 constructs as bait, MBP-ZCCHC8 constructs as prey, glutathione sepharose; 2 μM GST-MTR4∆N with 8 μM MBP-ZCCHC8 constructs; 50 mM Hepes pH 7.5, 150 mM NaCl, 5% glycerol, 0.05% NP40, 1 mM DTT, 30 min at 4 °C; SDS-PAGE, Coomassie"}, "GST-MTR4-∆N [2]": {"biological_target": "T1, GST-MTR4-∆N", "assay": "pull-down; GST-tagged MTR4 constructs as bait, MBP-ZCCHC8 constructs as prey, glutathione sepharose; 2 μM GST-MTR4∆N with 8 μM MBP-ZCCHC8 constructs; 50 mM Hepes pH 7.5, 150 mM NaCl, 5% glycerol, 0.05% NP40, 1 mM DTT, 30 min at 4 °C; SDS-PAGE, Coomassie"}, "Trx-NVL^1–266": {"biological_target": "B1", "assay": "pull-down; GST-tagged MTR4 constructs as bait, Trx-NVL constructs as prey, glutathione sepharose; 10 μM GST-MTR4∆N with 20 μM Trx-NVL constructs; 50 mM Hepes pH 7.5, 150 mM NaCl, 5% glycerol, 0.05% NP40, 1 mM DTT, 30 min at 4 °C; SDS-PAGE, Coomassie"}}, "data": [{"binder": "B1", "values": [{"measurement": "binding result", "setting": "GST-MTR4-∆N [1]", "value": "binds"}]}, {"binder": "B2", "values": [{"measurement": "binding result", "setting": "GST-MTR4-∆N [1]", "value": "binds"}]}, {"binder": "B3", "values": [{"measurement": "binding result", "setting": "GST-MTR4-∆N [1]", "value": "binds"}]}, {"binder": "B4", "values": [{"measurement": "Kd", "setting": "MTR4-KOW", "value": "~300", "unit": "nM"}]}, {"binder": "B5", "values": [{"measurement": "binding result", "setting": "GST-MTR4∆N R743E", "value": "binds"}]}, {"binder": "B6", "values": [{"measurement": "binding result", "setting": "GST-MTR4-∆N [2]", "value": "binds"}]}, {"binder": "B7", "values": [{"measurement": "binding result", "setting": "GST-MTR4-∆N [2]", "value": "binds"}]}, {"binder": "B8", "values": [{"measurement": "binding result", "setting": "Trx-NVL^1–266", "value": "binds"}]}]}
